In US20220072101A1, “HARNESSING INFLAMMATION TO TREAT NEURODEVELOPMENTAL DISORDERS” (President and Fellows of Harvard College, priority 2019, published 2022):
Entries after “also recorded” stand apart in the source; their conditions may differ. Counter-ions that a name gives are not always drawn.

Tests used:
Type in all cases: in vivo, mouse
MIA offspring = test: Three-chamber social approach assay in PBS and MIA offspring; details: for sociability phenotype after IL-17a into S1DZ: MIA offspring, IL-17a 50 ng/side bilaterally into S1DZ, 4 hours, no LPS
Description: Adult male mice were assayed for sociability using a three-chamber social approach assay. The arena was constructed of white acrylic (50 cm×35 cm×30 cm). Wire cups (Spectrum Diversified®) were placed in the back left and right corner of the arena beneath water-filled 1 L bottles (Nalgene®). On Day 0, mice were habituated to the arena for 10 min. Immediately following habituation, mice were singly housed. On Day 1 (Pre), mice were placed in the center of the arena and allowed to freely explore. Following 10 min, mice were confined to the center of the arena. An inanimate object (rubber stopper) or a male conspecific were placed beneath the wire cups. Placement of the inanimate object and social target were alternated. Mice were then allowed to freely explore the arena for 10 min. Interaction time was defined as time spent in the areas circumscribing the wire cups (<2 cm). Sociability was defined as interaction time with the social target divided by total interaction time and expressed as a percentage. For experiments involving LPS injections, mice were injected with LPS ([…], i.p., L2630, Sigma) on Day 2 (Test), four hours prior to testing. […]
Adult male mice were implanted with cannula into S1DZ and allowed to recover for >2 weeks prior to behavioral experiments. On Day 1 (Pre) mice were assayed for sociability. On Day 2 (Test), mice were anesthetized briefly using isoflurane and either vehicle or IL-17a (50 ng/side in 1 μl at a rate of 180 nl/min, 7956-ML/CF, R&D®) was administered bilaterally into S1DZ through 250 μm-projecting injector tips (PlasticsOne®). Four hours after vehicle or IL-17a administration, mice were assayed for sociability. Cannula placements were verified using histology.
(§1) Adult male mice were assayed for sociability using a three-chamber social approach assay. The arena was constructed of white acrylic (50 cm×35 cm×30 cm). Wire cups (Spectrum Diversified®) were placed in the back left and right corner of the arena beneath water-filled 1 L bottles (Nalgene®). On day 0, mice were habituated to the arena for 10 min. Immediately following habituation, mice were singly housed. On day 1 (Pre), mice were placed in the center of the arena and allowed to freely explore. Following 10 min, mice were confined to the center of the arena. An inanimate object (rubber stopper) or a male conspecific were placed beneath the wire cups. Placement of the inanimate object and social target were alternated. Mice were then allowed to freely explore the arena for 10 min. Interaction time was defined as time spent in the areas circumscribing the wire cups (<2 cm). Sociability was defined as interaction time with the social target divided by total interaction time and expressed as a percentage. For experiments involving LPS injections, mice were injected with either saline (Veh) or LPS ([…], i.p., L2630, Sigma) on day 2 (Test), four hours prior to testing. For the experiment assaying sociability 72 hrs following LPS injection, mice used for 4 hr LPS sociability experiments were tested for sociability again at 72 hrs.
Adult male Vgat-Cre MIA offspring were bilaterally injected with virus encoding the inhibitory DREADD receptor fused to mCherry into the vLPO. Following >3 weeks of recovery, mice were assayed on the three-chamber social approach assay outlined above. Baseline sociability was assayed on day 1 (Pre). On day 2 and day 3, mice were injected with either Saline (Veh) or CNO (1.5 mg/kg i.p., BML-NS105, Enzo Life Sciences®), two hours prior to initiation of behavior. Injection order was counterbalanced. Following behavioral experiments, post-mortem histology was used to confirm mCherry expression within the vLPO. For experiments assaying the effect of CNO and LPS injection in Vgat-Cre PBS and MIA offspring that have not undergone surgery, baseline sociability was assessed on day 1. On day 2 and 3 mice received counterbalanced injections of CNO or vehicle. On day 4, mice were injected with LPS. […]

[1] = test system: segmented filamentous bacteria (SFB); test: SFB levels by 16S rRNA qPCR of fecal pellets and SEM of ileum after antibiotics; details: Taconic-derived mice; vancomycin 2.5 mg/kg or metronidazole 10 mg/kg orally every two days
Description: For SFB-gavaging experiments, four fecal pellets of SFB mono-colonized mice were dissolved in 20 ml sterile PBS and filtered through a 100-μm cell strainer. 200 μl of fecal suspensions were gavaged via oral route into 8 to 9-week-old male cross-fostered mice. Control mice were gavaged with PBS. The SFB colonization was tested on day 7 following SFB-gavaging. For antibiotics treatments, Taconic-derived male mice were orally gavaged with vancomycin hydrochloride (Fisher) (2.5 mg/kg) or metronidazole (10 mg/kg) (Sigma Aldrich®) every two days, starting 21 days before behavioral test. Mouse fecal pellets were collected and stored at −80° C. before and after vancomycin and metronidazole treatments.
Bacterial genomic DNA was isolated from the fecal pellets of mice with phenol-chloroform extraction. qPCR was performed to quantify relative abundance of segmented filamentous bacteria (SFB). […] Data were analysed using Roche (Lightcylcler^R 96 SW1.1) Software and the relative quantification (fold) of SFB DNA was performed using the ΔΔCt method.
Terminal ileum tissues from mice (8-10 weeks old) were cut open and fixed with 2.5% glutaraldehyde in 0.1 M cacodylate buffer (pH 7.4) overnight and processed for standard scanning electron microscopy. All samples were analysed on a Hitachi S-4800 Type II Field Emission Scanning Electron Microscope™.

IL-17a, IFNγ, IL-6, TNFα = test: ELISA of cytokines in plasma and brain lysate; details: LPS-injected MIA offspring; antibiotic by oral gavage
Description: Mice were put under general anesthesia by intraperitoneal injection of Ketamine (100 mg/kg, i.p.) and xylazine (10 mg/kg, i.p.). Blood was collected by retro-orbital puncture, using clean heparinized microhematocrit capillary tubes (Fisher Scientific®). Once the tube was withdrawn, slight pressure was applied on the eyelid with gauze to prevent further bleeding. All blood samples were centrifuged at 15,000 g for 3 min at room temperature. For quantification of cytokines in brain lysate, samples were disrupted in cold lysis buffer with protease inhibitor cocktail for 60 seconds using the Micro-Homogenizer (VWR International) and centrifuged for 30 min at 15,000×g to remove insoluble precipitates. All samples were stored at −80° C. until further analysis. Plasma and brain lysate cytokines concentrations were measured using an ELISA kit (Biolgened™), following the manufacturer's instructions.
After four hours of vehicle or LPS administration, mice were anesthetized by intraperitoneal injection of fatal plus (100 mg/kg). All blood samples were centrifuged at 10,000 g for 10 min at 4 C. All samples were stored at −80° C. until further analysis. Cytokines concentrations in plasma were measured using an ELISA kit (IFN-γ; 430804, TNF-α; 430904, IL-6; 431304, IL-17a; 432504, Biolegend®), following the manufacturer's instructions.

[2] = test system: Cntnap2, Fmr1, and Shank3 mutant mice; test: Three-chamber social approach assay in monogenic mutant mice; details: Cntnap2 and Fmr1 (monogenic) mutant mice, IL-17a 50 ng/side bilaterally into S1DZ, 4 hours
Description: All experiments were performed according to Guide for the Care and Use of Laboratory Animals and were approved by the National Institutes of Health and the Committee on Animal Care at Massachusetts Institute of Technology. C57BL/6 were purchased from Taconic Biosciences for generating PBS and MIA offspring. Vgat-Cre (028862) were purchased from Jackson Laboratories and inbred. For monogenic experiments, C57BL/6, Cntnap2 (017482), Fmr1 (003025), and Shank3 (017688) mice were purchased from Jackson Laboratories and inbred after colonizing with SFB from donor mice. IL-17Ra^fl/fl and IL-17RaKO were previously described^24,25. All mice were males aged 2-5 months, unless otherwise specified.
as §1, with “hrs. […]” for “hrs.”

Molecule: C[N+]1([O-])CCN(C2=Nc3cc(Cl)ccc3Nc3ccccc32)CC1 [CNO]
- sociability in MIA Vgat-Cre mice (MIA offspring; Vgat-Cre MIA offspring without surgery, CNO 1.5 mg/kg i.p. or LPS): unaffected by CNO treatment

Molecule: CN[C@H](CC(C)C)C(=O)N[C@H]1C(=O)N[C@@H](CC(N)=O)C(=O)N[C@H]2C(=O)N[C@H]3C(=O)N[C@H](C(=O)N[C@H](C(=O)O)c4cc(O)cc(O)c4-c4cc3ccc4O)[C@H](O)c3ccc(c(Cl)c3)Oc3cc2cc(c3O[C@@H]2O[C@H](CO)[C@@H](O)[C@H](O)[C@H]2O[C@H]2C[C@](C)(N)[C@H](O)[C@H](C)O2)Oc2ccc(cc2Cl)[C@H]1O [vancomycin, vancomycin hydrochloride]
- intestinal colonization by SFB (qPCR of fecal samples) [1]: severely reduced
- LPS-induced reversal of the sociability phenotype after antibiotic pretreatment (MIA offspring; LPS-injected MIA offspring, antibiotic by oral gavage every two days from 21 days before test): prevented the reversal of the sociability phenotype
- LPS-induced increase in plasma and brain IL-17a and plasma IFNγ after antibiotic pretreatment (IL-17a, IFNγ, IL-6, TNFα): suppressed the systemic increase in plasma and brain levels of IL-17a as well as the plasma levels of IFNγ

B1: recombinant IL-17a: recombinant IL-17a protein (7956-ML/CF, R&D) administered bilaterally into S1DZ (protein)
chain: AAIIPQSSACPNTEAKDFLQNVKVNLKVFNSLGAKVSSRRPSDYLNRSTSPWTLHRNEDPDRYPSVIWEAQCRHQRCVNAEGKLDHHMNSVLIQQEILVLKREPESCPFTFRVEKMLVGVGCTCVASIVRQAA
- sociability phenotype after IL-17a into S1DZ (MIA offspring): sufficient to promote sociability in monogenic mutant mice as well as in MIA offspring; also recorded: sufficient to rescue the sociability phenotypes of not only MIA offspring
- sociability phenotype after IL-17a into S1DZ (MIA offspring; listed as IL-17a): sufficient to rescue sociability deficits in MIA offspring; also recorded: rescues sociability deficits in both MIA offspring and monogenic mutant mice
- sociability phenotype after IL-17a into S1DZ (MIA offspring; listed as exogenous IL-17a): rescued sociability deficits
- sociability phenotype after IL-17a into S1DZ (MIA offspring; listed as recombinant IL-17a protein): sufficient to rescue the sociability phenotype of MIA offspring
- sociability phenotype after IL-17a into S1DZ [2]: sufficient to promote sociability in monogenic mutant mice
- sociability phenotype after IL-17a into S1DZ ([2]; listed as IL-17a): rescues sociability deficits in both MIA offspring and monogenic mutant mice
